T1: IL-17 (Homo sapiens, UniProt Q16552 Q16552:24-155)
T1 sequence: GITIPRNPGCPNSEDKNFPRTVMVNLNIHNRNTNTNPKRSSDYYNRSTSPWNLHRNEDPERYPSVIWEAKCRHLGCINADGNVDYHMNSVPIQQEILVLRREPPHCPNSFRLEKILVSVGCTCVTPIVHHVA

T2: IL-17 (IL-17A) (Homo sapiens, UniProt Q16552 Q16552:24-155)
T2 sequence: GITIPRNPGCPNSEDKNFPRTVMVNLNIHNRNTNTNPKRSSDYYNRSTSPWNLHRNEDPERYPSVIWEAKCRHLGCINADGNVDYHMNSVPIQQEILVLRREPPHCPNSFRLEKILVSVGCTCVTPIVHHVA


What was measured:
Settings in all cases: chain copies: 2
IL-17 [1] = target: T1, IL-17; experiment: SPR; IL-17R-Fc on chip
Protocol: Whether aptamers shown by aptamer Nos. 1-49 inhibit the binding of IL-17 and IL-17 receptor was evaluated by the surface plasmon resonance method.
For the measurement, BIAcore2000 manufactured by BIAcore was used. […] As an analyte, IL-17 (100 or 150 nM) and an aptamer (50 or 100 nM) shown by aptamer No. 1-49 were mixed, maintained for 15 min and after that the mixture was flown.

IL-17 [2] = target: T1, IL-17; experiment: cell_activity; NIH3T3 IL-6 release
Protocol: First, human IL-17 and the aptamer produced in Example 1-1 were pre-incubated at 37° C. for 30 min, and added to NIH3T3 cell (ATCC, CRL1658) together with mouse TNFα (2 ng/mL). Then, after incubation for 24 hr, the culture supernatant was collected, and the amount of IL-6 was measured by BD Cytometric Bead Array (BD Biosciences). The IL-17 inhibitory action of each aptamer was determined from the amount of IL-6. For comparison with the aptamer of the present invention, a conventionally-known aptamer (aptamer No. 50) against IL-17 was used.

IL-17 (IL-17A) = target: T2, IL-17 (IL-17A); experiment: cell_activity; IL-6 release, NIH3T3
Protocol: First, human IL-17 and the aptamer produced in Example 1-2 were pre-incubated at 37° C. for 30 min, and added to NIH3T3 cell (ATCC, CRL1658) together with mouse TNFα (2 ng/mL). Then, after incubation for 24 hr, the culture supernatant was collected, and the production amount of IL-6 was measured by ELISA method described below. The IL-17 inhibitory action of each aptamer was determined from the production amount of IL-6. For comparison with the aptamer of the present invention, a conventionally-known aptamer (aptamer No. 50) against IL-17 was used.
ELISA method for verifying IL-17 inhibitory action of aptamer: A microtiter plate for ELISA was coated with rat anti-mouse IL-6 antibody (BD Biosciences, 2 μg/mL; 100 μL/well) diluted with PBS, and incubated at 4° C. overnight. The next day, the microtiter plate was washed 3 times with PBS/0.05% Tween 20, and applied blocking with PBS/1% BSA (200 μL/well) at room temperature for 2 hr. Then, the plate was washed 3 times with PBS/0.05% Tween 20. Recombinant mouse IL-6 (BD Biosciences; 100 μL/well) serially diluted with PBS/1% BSA/0.05% Tween 20 or culture supernatants (100 μL/well) were added to the plate. After incubation at room temperature for 2 hr, the plate was washed 3 times with PBS/0.05% Tween 20. Then, 100 μL/well of biotin conjugated rat anti-mouse IL-6 antibody (BD Biosciences) was added to the plate at final dilution of 1/500, and the mixture was reacted at room temperature for 1 hr. After washing 3 times with PBS/0.05% Tween 20, 100 μL/well of alkaline phosphatase conjugated streptavidin was added at final dilution of 1/1000. After 30 min at room temperature, the plate was again washed 4 times with PBS/0.05% Tween 20, and a substrate (1-Step PNPP; Thermo Fisher Scientific Inc; 100 μL/well) was added. After 15 min, aqueous sodium hydroxide solution (2N: 50 μL/well) was added to stop the reaction, and the plate was read on a microtiter reader (Bio-Rad) by using a 405 nm filter.

Binder | binding signal (IL-17 [1]) | IC50 (IL-17 [2]) | IC50 (IL-17 (IL-17A))
GGGUAGCCGGAGGAGTCAGTAAUCGGUACCC (mixed, 2'-OMe (M), 2'-F (F) as marked; uppercase DNA [2'-OMe: 1-4,7,8,10,13,14,21,23-26,28; 2'-F: 6,11,17,18,27]) [aptamer No. 15] | 14.2 % IL-17/IL-17R binding remaining | 0.63 nM | 
GGGUAGCCGGAGGAGTCAGTAAUCGGUACCC (mixed, 2'-OMe (M), 2'-F (F), PS (S) as marked; uppercase DNA [1,2,3,4,6,7,8,10,11,13,14,17,18,21,23,24,25,26,27,28]) [aptamer No. 11] | 16.8 % IL-17/IL-17R binding remaining | 0.34 nM | 
GGGUAGCCGGAGGAGUCAGUAAUCGGUACCC (mixed, g(M)g(M)g(M)u(M)a(M)g(S)c(M)c(M)Gg(M)a(F)gg(M)a(M)g(S)u(F)c(F)a(F)g(S)u(F)a(M)a(M)u(M)c(M)g(M)g(M)u(F)Ac(M)c(M)c(M)) [aptamer No. 68] |  |  | 2.4 nM
GGGUAGCCGGAGGAGTCAGTAAUCGGUACCC (mixed, g(M)g(M)g(M)u(M)a(M)g(S)c(M)c(M)Gg(M)a(M)gg(M)a(M)g(S)Tc(M)a(F)g(S)Taa(M)u(M)c(M)g(M)g(M)u(M)a(M)c(M)c(M)c(M)) [aptamer No. 89] |  |  | 6.21 nM
GGGUAGCCGGAGGAGUCAGUAAUCGGUACCC (mixed, g(M)g(M)g(M)u(M)a(M)g(S)c(M)c(M)Gg(M)a(M)gg(M)a(M)g(S)u(F)c(F)a(F)g(S)u(F)a(M)a(M)u(M)c(M)g(M)g(M)u(M)a(M)c(M)c(M)c(M)) [aptamer No. 84] |  |  | 1.04 nM
GGGUAGCCGGAGGAGTCAGTAAUCGGUACCC (mixed, g(M)g(M)g(M)u(M)a(M)g(S)c(M)c(M)Gg(M)a(M)gg(M)a(M)g(S)Tc(F)a(F)g(S)Ta(M)a(M)u(M)c(M)g(M)g(M)u(M)a(M)c(M)c(M)c(M)) [aptamer No. 82] |  |  | 0.48 nM
GGGUAGCCGGAGGAGTCAGTAAUCGGTACCC (mixed, 2'-OMe (M), 2'-F (F) as marked; uppercase DNA [2'-OMe: 1-4,7,8,10,13,14,23-26,28-31; 2'-F: 17]) [aptamer No. 22] |  | 1.66 nM | 
GGGUAGCCGGAGGAGUCAGUAAUCGGUACCC (mixed, g(M)g(M)g(M)u(M)a(M)gc(M)c(M)Gg(M)a(F)gg(M)a(M)gu(F)c(F)a(F)gu(F)a(M)a(M)u(M)c(M)g(M)g(M)u(F)Ac(M)c(M)c(M)) [aptamer No. 76] |  |  | 1.7 nM
GGGUAGCCGGAGGAGUCAGUAAUCGGUACCC (mixed, g(M)g(M)g(M)u(M)a(M)gc(M)c(M)gg(M)a(F)gg(M)a(M)gu(F)c(F)a(F)gu(F)a(M)a(M)u(M)c(M)g(M)g(M)u(F)Ac(M)c(M)c(M)) [aptamer No. 77] |  |  | 4.66 nM
GGGUAGCCGGAGGAGUCAGUAAUCGGUACCC (mixed, g(M)g(M)g(M)u(M)a(M)g(S)c(M)c(M)Gg(M)a(M)gg(M)a(M)g(S)u(F)c(F)a(F)g(S)u(F)aa(M)u(M)c(M)g(M)g(M)u(F)a(M)c(M)c(M)c(M)) [aptamer No. 92] |  |  | 2.6 nM
GGGUAGCCGGAGGAGTCAGTAAUCGGUACCC (mixed, g(M)g(M)g(M)u(M)a(M)gc(M)c(M)Gg(M)a(F)gg(M)a(M)gTc(F)a(F)gTa(M)a(M)u(M)c(M)g(M)g(M)u(M)a(M)c(M)c(M)c(M)) [aptamer No. 78] |  |  | 1.36 nM
GGGUAGCCGGAGGAGTCAGTAAUCGGUACCC (mixed, 2'-OMe (M), 2'-F (F) as marked; uppercase DNA [1,2,3,4,6,7,8,10,11,13,14,17,18,21,22,23,24,25,26,27,28]) [aptamer No. 14] | 16.5 % IL-17/IL-17R binding remaining | 0.5 nM | 
GGGUAGCCGGAGGAGTCAGTAAUCGGUACCC (mixed, g(M)g(M)g(M)u(M)a(M)g(S)c(M)c(M)Gg(M)a(M)gg(M)a(M)g(S)Tc(M)a(F)g(S)Ta(M)a(M)u(M)c(M)g(M)g(M)u(M)a(M)c(M)c(M)c(M)) [aptamer No. 81] |  |  | 2.26 nM
GGGUAGCCGGAGGAGUCAGUAAUCGGUACCC (mixed, g(M)g(M)g(M)u(M)a(M)g(S)c(M)c(M)Gg(M)a(F)gg(M)a(M)gu(F)c(F)a(F)gu(F)a(M)a(M)u(M)c(M)g(M)g(M)u(F)a(M)c(M)c(M)c(M)) [aptamer No. 69] |  |  | 1.73 nM
GGGUAGCCGGAGGAGTCAGTAAUCGGUACCC (mixed, g(M)g(M)g(M)u(M)Ag(S)c(M)c(M)Gg(M)a(F)gg(M)a(M)g(S)Tc(F)a(F)g(M)Ta(M)a(M)u(M)c(M)g(M)g(M)u(F)a(M)c(M)c(M)c(M)) [aptamer No. 59] |  |  | 1.19 nM
GGGUAGCCGGAGGAGUCAGUAAUCGGUACCC (mixed, g(M)g(M)g(M)u(M)a(M)g(S)c(M)c(M)Gg(M)a(M)gg(M)a(M)g(S)u(F)c(F)a(F)g(S)u(F)a(M)au(M)c(M)g(M)g(M)u(F)a(M)c(M)c(M)c(M)) [aptamer No. 93] |  |  | 0.22 nM
GGGUAGCCGGAGGAGTCAGTAAUCGGUACCC (mixed, g(M)g(M)g(M)u(M)a(M)g(S)c(M)c(M)Gg(M)a(F)gg(M)a(M)g(S)Tc(M)a(F)g(S)Ta(M)a(M)u(M)c(M)g(M)g(M)u(F)a(M)c(M)c(M)c(M)) [aptamer No. 64] |  |  | 4.64 nM
GGGUAGCCGGAGGAGTCAGTAAUCGGUACCC (mixed, g(M)g(M)g(M)u(M)a(M)g(S)c(M)c(M)Gg(M)a(M)gg(M)a(M)g(S)Tc(M)a(F)g(S)Ta(M)au(M)c(M)g(M)g(M)u(M)a(M)c(M)c(M)c(M)) [aptamer No. 90] |  |  | 1.08 nM
GGGUAGCCGGAGGAGTCAGTAAUCGGUACCC (mixed, g(M)g(M)g(M)u(M)a(M)g(S)c(M)c(M)Gg(M)a(M)gg(M)a(M)g(S)Tc(M)a(F)g(S)Taau(M)c(M)g(M)g(M)u(M)a(M)c(M)c(M)c(M)) [aptamer No. 91] |  |  | 3.86 nM
GGGUAGCCGGAGGAGTCAGTAAUCGGUACCC (mixed, 2'-OMe (M), 2'-F (F) as marked; uppercase DNA; (N) printed, likely (M) [1,2,3,4,7,8,10,11,13,14,17,18,21,23,24,25,26,27,28]) [aptamer No. 13] | 13.8 % IL-17/IL-17R binding remaining | 0.4 nM | 
GGGUAGCCGGAGGAGTCAGTAAUCGGUACCC (mixed, 2'-OMe (M), 2'-F (F), PS (S) as marked; uppercase DNA [1,2,3,4,5,6,7,8,10,11,13,14,17,18,21,23,24,25,26,27]) [aptamer No. 10] | 25.2 % IL-17/IL-17R binding remaining | 0.63 nM | 
GGGUAGCCGGAGGAGUCAGUAAUCGGUACCC (mixed, g(M)g(M)g(M)u(M)a(M)g(S)c(M)c(M)Gg(M)a(M)gg(M)a(M)g(S)u(F)c(F)a(F)g(S)u(F)aau(M)c(M)g(M)g(M)u(F)a(M)c(M)c(M)c(M)) [aptamer No. 94] |  |  | 0.29 nM
GGGUAGCCGGAGGAGUCAGUAAUCGGUACCC (mixed, 2'-OMe (M), 2'-F (F), PS (S) as marked; uppercase DNA [1,2,3,4,6,7,8,10,11,13,14,16,17,18,20,23,24,25,26,27,28]) [aptamer No. 7] | 18.4 % IL-17/IL-17R binding remaining | 0.3 nM | 

From patent publication US20160046944, “APTAMER TO IL-17 AND USE THEREOF” (THE UNIVERSITY OF TOKYO, published 2016)
